Substrate: CC(C)/C=C/CCCCC(=O)SCCNC(=O)CCNC(=O)[C@H](O)C(C)(C)COP(=O)(O)OP(=O)(O)OC[C@H]1O[C@@H](n2cnc3c(N)ncnc32)[C@H](O)[C@@H]1OP(=O)(O)O
Assay: HPLC/MS capsaicin formation
Format: biochemical, Capsicum chinense
Conditions: co-substrate vanilloylamine (saturating per Figure S3), 50 mM TRIS/HCl pH 7.5, 150 mM NaCl, 10% glycerol, 1 mM TCEP, partly purified enzyme, single measurement, three technical replicates

B1: recombinant capsaicin synthase (AT3, Pun1) (Capsicum chinense) (protein)
chain: MAFALPSSLVSVCDKSFIKPSSLTPSTLRFHKLSFIDQSLSNMYIPCAFFYPKVQQRLEDSKNSDELSHIAHLLQTSLSQTLVSYYPYAGKLKDNATVDCNDMGAEFLSVRIKCSMSEILDHPHASLAESIVLPKDLPWANNCEGGNLLVVQVSKFDCGGIAISVCFSHKIGDGCSLLNFLNDWSSVTRDHTTTTLVPSPRFVGDSVFSTKTYGSLTTPQILSDLNECVQKRLIFPTDKLDALRAKVAEESGVKNPTRAEVVSALLFKCATKASSSMLPSKLVHFLNIRTMIKPRLPRNTIGNLSSIFSIEATNMQDMELPTLVRNLRKEVEVAYKKDQVEQNELILEVVESMREGKLPFENMDGYENVYTCSNLCKYPYYTVDFGWGRPERVCLGNGPSKNAFFLKDYKAGQGVEARVMLHKQQMSEFERNEELLEFIA
notes: full length, codon-optimized 1332 bp NdeI/XhoI fragment in pET-16b, His-tag (2 kDa) kept; E. coli SoluBL21; partly purified (Ni-NTA, SEC); monomer
Question: For B1, which Km is on record?
Answer: Its Km is 480 ± 240 µM.

— PMC9606859, “Chemical Synthesis of Trans 8-Methyl-6-Nonenoyl-CoA and Functional Expression Unravel Capsaicin Synthase Activity Encoded by the Pun1 Locus” (Molecules, 2022)
